Laboratory results taken from publication PMC11897156, “Ex.50.T aptamer impairs tumor–stroma cross-talk in breast cancer by targeting gremlin-1”.

How the values were obtained:
Gremlin-1 (recombinant) [1] = target: T1, Gremlin-1 (recombinant) (UniProt O60565 25-184); test: SPR; GREM1 immobilized, aptamer 0.062-1 uM, 25 C; kon 3.39e4 M-1 s-1, koff 1.58e-3 s-1; Aptamer refolded 85 C 5 min, 4 C 2 min, 37 C 10 min; ELONA: PBS, 3% BSA block, 1 h; pull-down: 10 mM PBS with Ca2+ and Mg2+, room temperature; SPR at 25 C (buffer not in material); cell binding: serum-free medium, 37 C, 30 min; conditions: protein: commercial; chain copies: 2; label: biotin (ELONA, pull-down); none stated for SPR; hairpin; predicted stem of 11 bp, 2 internal loops, 1 terminal loop
T1 sequence: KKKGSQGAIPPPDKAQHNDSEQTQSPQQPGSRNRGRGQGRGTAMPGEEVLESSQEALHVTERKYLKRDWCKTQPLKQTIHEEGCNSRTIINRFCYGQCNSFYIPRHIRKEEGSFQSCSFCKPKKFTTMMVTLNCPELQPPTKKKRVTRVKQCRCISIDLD

Gremlin-1 (recombinant) [2] = target: T1, Gremlin-1 (recombinant); test: ELONA; apparent Kd; unit inferred, nM implied by agreement with SPR; GREM1 coated, 200 nM aptamer; Aptamer refolded 85 C 5 min, 4 C 2 min, 37 C 10 min; ELONA: PBS, 3% BSA block, 1 h; pull-down: 10 mM PBS with Ca2+ and Mg2+, room temperature; SPR at 25 C (buffer not in material); cell binding: serum-free medium, 37 C, 30 min; conditions: protein: commercial; chain copies: 2; label: biotin (ELONA, pull-down); none stated for SPR; hairpin; predicted stem of 11 bp, 2 internal loops, 1 terminal loop

B1: ex.50.T (structured_RNA)
RNA: UGUGGCAGUUAAGAAUAGAUCUUCGCUGCGAUU
modifications: lowercase u/c in printed sequence probably 2'-F pyrimidines (not stated in material)
How did the Kd (Gremlin-1 (recombinant) [1]) turn out when B1 was run?
Its Kd is 46.7 nM.

And the Kd (Gremlin-1 (recombinant) [2])?
Its Kd is 37.7 nM.
